Numbered stars: 1 amine (or outer) side, 2 acyl side, 3 side chain; on linkers, the order of the positions; unused ones are H or OH. Bridge positions count the residues as written; N and C are the ends. Side chains are listed from the residue outwards. Ends that are not written are not given here. * marks the point of attachment. C20 diacid = O=C(O)CCCCCCCCCCCCCCCCCCC(=O)*; γGlu = O=C(O)[C@H](CCC(=O)[*:2])N[*:1]; AEEA = NCCOCCOCC(=O)O
T1: rat calcitonin receptor (rat, UniProt P32214 25-516)
T1 construct: whole, on cells; Membranes of BHK tk'ts 13 cells transiently transfected with the rat calcitonin receptor; also called rCTR; rat calcitonin (a) receptor
T1 sequence (looked up): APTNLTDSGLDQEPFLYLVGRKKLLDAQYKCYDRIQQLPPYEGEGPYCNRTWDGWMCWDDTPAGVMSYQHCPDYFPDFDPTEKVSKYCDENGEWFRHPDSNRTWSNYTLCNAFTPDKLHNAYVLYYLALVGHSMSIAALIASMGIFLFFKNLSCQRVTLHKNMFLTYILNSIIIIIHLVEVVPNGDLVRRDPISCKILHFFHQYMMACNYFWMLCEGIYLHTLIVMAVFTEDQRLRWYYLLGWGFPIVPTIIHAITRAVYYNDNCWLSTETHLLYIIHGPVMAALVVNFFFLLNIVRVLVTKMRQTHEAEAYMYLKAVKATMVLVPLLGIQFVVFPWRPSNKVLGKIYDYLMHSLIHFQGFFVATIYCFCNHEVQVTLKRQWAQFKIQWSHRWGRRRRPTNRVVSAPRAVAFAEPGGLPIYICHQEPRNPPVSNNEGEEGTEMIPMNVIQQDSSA

T2: human calcitonin receptor (human, UniProt P30988 25-474)
T2 construct: whole, on cells; Membranes of a BHK tk'ts 13 cell line stably transfected with the human calcitonin receptor; also called hCTR; hCT
T2 sequence (looked up): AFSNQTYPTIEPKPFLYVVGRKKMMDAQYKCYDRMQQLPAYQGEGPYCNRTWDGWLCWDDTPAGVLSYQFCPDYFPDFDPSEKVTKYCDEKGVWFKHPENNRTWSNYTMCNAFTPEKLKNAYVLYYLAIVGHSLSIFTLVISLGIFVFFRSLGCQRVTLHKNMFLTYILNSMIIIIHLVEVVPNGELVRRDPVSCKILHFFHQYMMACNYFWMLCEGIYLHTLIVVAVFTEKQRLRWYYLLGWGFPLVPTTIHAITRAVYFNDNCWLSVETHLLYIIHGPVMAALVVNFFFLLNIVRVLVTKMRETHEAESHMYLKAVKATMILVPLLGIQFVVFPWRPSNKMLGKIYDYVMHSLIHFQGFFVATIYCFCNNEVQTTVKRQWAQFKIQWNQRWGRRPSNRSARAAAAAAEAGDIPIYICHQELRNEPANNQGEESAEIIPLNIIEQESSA

T3: rat amylin receptor (rat calcitonin receptor + rat RAMP 3) (rat, UniProt P32214 25-516; Q9JJ73 23-147)
T3 construct: whole, on cells; Membranes of BHK tk'ts 13 cells transiently transfected with the rat calcitonin receptor and rat RAMP 3; also called rAmylin-R; rat amylin 3(a) receptor
T3 sequence (looked up) 1: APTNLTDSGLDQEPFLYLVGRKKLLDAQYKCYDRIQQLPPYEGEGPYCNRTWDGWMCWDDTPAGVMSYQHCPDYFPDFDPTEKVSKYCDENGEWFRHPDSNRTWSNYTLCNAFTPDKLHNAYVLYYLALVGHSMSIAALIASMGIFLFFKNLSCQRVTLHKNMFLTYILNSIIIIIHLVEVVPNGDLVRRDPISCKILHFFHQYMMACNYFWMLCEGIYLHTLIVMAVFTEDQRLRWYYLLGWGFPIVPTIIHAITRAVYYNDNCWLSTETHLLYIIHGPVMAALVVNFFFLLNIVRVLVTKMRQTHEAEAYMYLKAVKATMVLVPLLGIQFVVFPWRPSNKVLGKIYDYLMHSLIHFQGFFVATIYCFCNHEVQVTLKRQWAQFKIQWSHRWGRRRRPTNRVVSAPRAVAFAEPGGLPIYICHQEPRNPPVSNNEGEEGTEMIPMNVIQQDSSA
T3 sequence (looked up) 2: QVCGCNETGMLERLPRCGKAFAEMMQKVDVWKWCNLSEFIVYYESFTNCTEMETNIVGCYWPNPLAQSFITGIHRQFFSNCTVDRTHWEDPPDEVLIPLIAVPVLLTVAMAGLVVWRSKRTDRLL


How the values were obtained:
rat calcitonin receptor [1] = biological target: T1, rat calcitonin receptor; experiment: SPA competition vs 125I-calcitonin, membranes with rat CTR (Assay VIII)
rat calcitonin receptor [2] = biological target: T1, rat calcitonin receptor; experiment: IC50 at rCTR divided by IC50 at rAmylin-R (reference)
[3] = biological target: T2, human calcitonin receptor; experiment: IC50 at hCTR divided by IC50 at hAmylin-R (reference)
Outline: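 Scintillation proximity competition binding on cell membranes at 35 ng/μL with SPA beads, in 50 mM Hepes pH 7.4, 1 mM CaCl2, 5 mM MgCl₂, 0.1% OA, 0.02% Tween20. Incubated 120 min at 25° C with shaking. IC₅₀ from one-site competition fit.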

[4] = biological target: T3, rat amylin receptor (rat calcitonin …); experiment: SPA competition vs 125I-rat amylin, membranes with rat CTR + rat RAMP3 (Assay VI)

Binder	IC50 (rat calcitonin receptor [1]) [nM]	Ratio rCT/rAmylin binding (rat calcitonin receptor [2])	Ratio hCT/hAmylin binding [3]	IC50 [4] [nM]
K([AEEA-γGlu-C20 diacid])CNTATCATQRLANFLRHSSPNFGAIPSSTNVGSNTY-NH2 (disulfide 2-7; N-terminus assumed; SMILES CC[C@H](C)[C@H](NC(=O)[C@H](C)NC(=O)CNC(=O)[C@H](Cc1ccccc1)NC(=O)[C@H](CC(N)=O)NC(=O)[C@@H]1CCCN1C(=O)[C@H](CO)NC(=O)[C@H](CO)NC(=O)[C@H](Cc1c[nH]cn1)NC(=O)[C@H](CCCNC(=N)N)NC(=O)[C@H](CC(C)C)NC(=O)[C@H](Cc1ccccc1)NC(=O)[C@H](CC(N)=O)NC(=O)[C@H](C)NC(=O)[C@H](CC(C)C)NC(=O)[C@H](CCCNC(=N)N)NC(=O)[C@H](CCC(N)=O)NC(=O)[C@@H](NC(=O)[C@H](C)NC(=O)[C@@H]1CSSC[C@H](NC(=O)[C@@H](N)CCCCNC(=O)COCCOCCNC(=O)CC[C@H](NC(=O)CCCCCCCCCCCCCCCCCCC(=O)O)C(=O)O)C(=O)N[C@@H](CC(N)=O)C(=O)N[C@@H]([C@@H](C)O)C(=O)N[C@@H](C)C(=O)N[C@@H]([C@@H](C)O)C(=O)N1)[C@@H](C)O)C(=O)N1CCC[C@H]1C(=O)N[C@@H](CO)C(=O)N[C@@H](CO)C(=O)N[C@H](C(=O)N[C@@H](CC(N)=O)C(=O)N[C@H](C(=O)NCC(=O)N[C@@H](CO)C(=O)N[C@@H](CC(N)=O)C(=O)N[C@H](C(=O)N[C@@H](Cc1ccc(O)cc1)C(N)=O)[C@@H](C)O)C(C)C)[C@@H](C)O, modifications are with respect to human amylin; also called compound 41)	74.1	54	49.9	1.37
{C20 diacid-γGlu}-KCNTATCATQRLAEFLRHSSPNFGAIPSSTNVGKNTY-NH2 (disulfide 2-7; SMILES CC[C@H](C)[C@H](NC(=O)[C@H](C)NC(=O)CNC(=O)[C@H](Cc1ccccc1)NC(=O)[C@H](CC(N)=O)NC(=O)[C@@H]1CCCN1C(=O)[C@H](CO)NC(=O)[C@H](CO)NC(=O)[C@H](Cc1c[nH]cn1)NC(=O)[C@H](CCCNC(=N)N)NC(=O)[C@H](CC(C)C)NC(=O)[C@H](Cc1ccccc1)NC(=O)[C@H](CCC(=O)O)NC(=O)[C@H](C)NC(=O)[C@H](CC(C)C)NC(=O)[C@H](CCCNC(=N)N)NC(=O)[C@H](CCC(N)=O)NC(=O)[C@@H](NC(=O)[C@H](C)NC(=O)[C@@H]1CSSC[C@H](NC(=O)[C@H](CCCCN)NC(=O)CC[C@H](NC(=O)CCCCCCCCCCCCCCCCCCC(=O)O)C(=O)O)C(=O)N[C@@H](CC(N)=O)C(=O)N[C@@H]([C@@H](C)O)C(=O)N[C@@H](C)C(=O)N[C@@H]([C@@H](C)O)C(=O)N1)[C@@H](C)O)C(=O)N1CCC[C@H]1C(=O)N[C@@H](CO)C(=O)N[C@@H](CO)C(=O)N[C@H](C(=O)N[C@@H](CC(N)=O)C(=O)N[C@H](C(=O)NCC(=O)N[C@@H](CCCCN)C(=O)N[C@@H](CC(N)=O)C(=O)N[C@H](C(=O)N[C@@H](Cc1ccc(O)cc1)C(N)=O)[C@@H](C)O)C(C)C)[C@@H](C)O, modifications are with respect to human amylin; also called compound 36)	60.1	32.4	15.7	1.86
K([γGlu-C20 diacid])RCNTATCATQRLANFLRHSSPNFGAIPSSTNVGSHTY-NH2 (disulfide 3-8; N-terminus assumed; SMILES CC[C@H](C)[C@H](NC(=O)[C@H](C)NC(=O)CNC(=O)[C@H](Cc1ccccc1)NC(=O)[C@H](CC(N)=O)NC(=O)[C@@H]1CCCN1C(=O)[C@H](CO)NC(=O)[C@H](CO)NC(=O)[C@H](Cc1c[nH]cn1)NC(=O)[C@H](CCCNC(=N)N)NC(=O)[C@H](CC(C)C)NC(=O)[C@H](Cc1ccccc1)NC(=O)[C@H](CC(N)=O)NC(=O)[C@H](C)NC(=O)[C@H](CC(C)C)NC(=O)[C@H](CCCNC(=N)N)NC(=O)[C@H](CCC(N)=O)NC(=O)[C@@H](NC(=O)[C@H](C)NC(=O)[C@@H]1CSSC[C@H](NC(=O)[C@H](CCCNC(=N)N)NC(=O)[C@@H](N)CCCCNC(=O)CC[C@H](NC(=O)CCCCCCCCCCCCCCCCCCC(=O)O)C(=O)O)C(=O)N[C@@H](CC(N)=O)C(=O)N[C@@H]([C@@H](C)O)C(=O)N[C@@H](C)C(=O)N[C@@H]([C@@H](C)O)C(=O)N1)[C@@H](C)O)C(=O)N1CCC[C@H]1C(=O)N[C@@H](CO)C(=O)N[C@@H](CO)C(=O)N[C@H](C(=O)N[C@@H](CC(N)=O)C(=O)N[C@H](C(=O)NCC(=O)N[C@@H](CO)C(=O)N[C@@H](Cc1c[nH]cn1)C(=O)N[C@H](C(=O)N[C@@H](Cc1ccc(O)cc1)C(N)=O)[C@@H](C)O)C(C)C)[C@@H](C)O, modifications are with respect to human amylin; also called compound 44)	19.6	53.3	17.7	0.369
KCNTATCATQRLANFLRHSSPNFGAIPSSTNVGSNTY (C20 diacid-gGlu-2xOEG on the alpha amino group of the N-terminal residue (Lys 1); disulfide bridge Cys2-Cys7; C-terminal amide, modifications are with respect to human amylin; also called compound 24)	350	116	90	3.01
K([AEEA-C20 diacid])CNTATCATQRLANFLRHSSPNFGAIPSSTNVGSNTY-NH2 (disulfide 2-7; N-terminus assumed; SMILES CC[C@H](C)[C@H](NC(=O)[C@H](C)NC(=O)CNC(=O)[C@H](Cc1ccccc1)NC(=O)[C@H](CC(N)=O)NC(=O)[C@@H]1CCCN1C(=O)[C@H](CO)NC(=O)[C@H](CO)NC(=O)[C@H](Cc1c[nH]cn1)NC(=O)[C@H](CCCNC(=N)N)NC(=O)[C@H](CC(C)C)NC(=O)[C@H](Cc1ccccc1)NC(=O)[C@H](CC(N)=O)NC(=O)[C@H](C)NC(=O)[C@H](CC(C)C)NC(=O)[C@H](CCCNC(=N)N)NC(=O)[C@H](CCC(N)=O)NC(=O)[C@@H](NC(=O)[C@H](C)NC(=O)[C@@H]1CSSC[C@H](NC(=O)[C@@H](N)CCCCNC(=O)COCCOCCNC(=O)CCCCCCCCCCCCCCCCCCC(=O)O)C(=O)N[C@@H](CC(N)=O)C(=O)N[C@@H]([C@@H](C)O)C(=O)N[C@@H](C)C(=O)N[C@@H]([C@@H](C)O)C(=O)N1)[C@@H](C)O)C(=O)N1CCC[C@H]1C(=O)N[C@@H](CO)C(=O)N[C@@H](CO)C(=O)N[C@H](C(=O)N[C@@H](CC(N)=O)C(=O)N[C@H](C(=O)NCC(=O)N[C@@H](CO)C(=O)N[C@@H](CC(N)=O)C(=O)N[C@H](C(=O)N[C@@H](Cc1ccc(O)cc1)C(N)=O)[C@@H](C)O)C(C)C)[C@@H](C)O, modifications are with respect to human amylin; also called compound 43) [N^ε1-[2-[2-[2-(19-carboxynonadecanoylamino)ethoxy]ethoxy]acetyl]-[Arg17,Pro21,Pro27]-h-amylin]	7.6	69.1	34.7	0.11
